Results on four molecules are retold here after patent US20240190931A1, “MAGEC2 IMMUNOGENIC PEPTIDES, BINDING PROTEINS RECOGNIZING MAGEC2 IMMUNOGENIC PEPTIDES, AND USES THEREOF” (TScan Therapeutics, Inc., priority 2021, published 2024).

“Also recorded” adds a separate entry of the source.

For one assay, the system named is VGP peptide-pulsed cells. The assay can be described thus: IFP+ reporter-based cell killing of VGP peptide-pulsed HEK293T cells. Details: species or system human. The conditions noted are these: HEK293T cells pulsed with serial dilutions of VGP peptide, co-cultured with TCR-transduced T cells; FIG. 9A. On the procedure: (§1) To characterize the recognition of the identified peptide by a TCR, wild-type HEK293 cells were pulsed with serial dilutions of peptide and co-cultured with T cells transduced with the TCR of interest. After 24 hours, cultures were mixed by pipetting, and centrifuged at 2,000 rpm for 2 minutes. Supernatants were collected and measured for IFNγ secretion using a human IFNγ 3rd generation single-plex assay (Protein Simple) following the manufacturer's instructions. Alternatively, monoallelic HEK293T cells expressing a granzyme-activated fluorescent reporter were pulsed with serial dilutions of peptide and co-cultured with T cells transduced with an individual TCR of interest. After 4 hours, the cultures were harvested by pipetting and fluorescence of the reporter was detected using a CytoFLEX™ S instrument (Beckman Coulter).
Data shown in FIGS. 7-9 were generated according to similar materials, methods, and experiments as described above.

Assay [1] concerns the target T1, MAGEC2 peptide on HLA-B*07:02 (human).
T1 peptide: RAREFMELL
The assay can be described thus: killing.

The target in assay [2] is T2, MAGEC2 peptide on HLA-A*24:02 (human).
T2 peptide: VGPDHFCVF
The assay can be described thus: killing.

Assay [3] concerns MAGEC2-expressing melanoma cell lines. Put plainly: Incucyte cytotoxicity assay on NucLight Red melanoma cell lines. The format is cell-based, human. The conditions noted are these: E:T ratio of 2:1; versus MHC-mismatched control TCR or no T cells; FIG. 6. How it is done:
Melanoma lines were purchased from ATCC (Manassas, VA) and HEK293T cells were originally from Takara Bio (Shiga, Japan). All media were supplemented with 10% FBS and 1% penicillin and incubated at 37° C. in 5% CO2. A101D, A2058, HT144, and HEK293T cells were maintained in complete DMEM. SK-MEL-5 was cultured in complete EMEM, whereas HMCB required complete EMEM with 10 mM HEPES. Untransduced cancer cells were maintained in preparation for the T cell recognition assay, and 10^6 cells of each cell line were introduced with Incucyte® NucLight™ Red lentivirus reagent (Sartorius, Gottingen, Germany). Positively-labeled cells were selected using 1.5 ug/mL of puromycin over 72 hours.
Melanoma cells selected for Incucyte® NucLight™ analysis were seeded into 96-well flat bottom plates (Corning, Flintshire, UK) at 10^4 cells, except for HMCB cells, which were plated at 5×10^3 cells. On the same day, T cells were thawed, washed in complete RPMI-1640, and allowed to rest overnight in medium with 50 U/mL IL-2 (PeproTech), 5 ng/mL IL-7, and 5 ng/mL IL-15 (R&D Systems). All cells were rested for 16 hours at 37° C. in 5% CO2. A two-fold serial dilution of the T cells was performed for the effector to target ratios, with the highest E:T at 4:1, and the lowest at 1:2. […] Imaging utilized a 4× objective lens and data were analyzed using the Incucyte® Basic Software. […]

A further assay has as its system RAR peptide-pulsed cells. The assay can be described thus: T cell recognition assay: IFNγ release on co-culture with RAR peptide-pulsed wild-type HEK293T cells. The format is cell-based, human. Particulars: wild-type HEK293T cells pulsed with serial dilutions of RAR peptide, co-cultured with TCR-transduced T cells; FIG. 4A. How it is done: as §1
The target in assay [4] is T3, RAR peptide-HLA-B*07:02 (pMHC) complex (Homo sapiens, UniProt P01889+Q9UBF1).
T3 construct: expressed in transfected cells; host or cells: MHC-null HEK293T cells engineered to express HLA-B*07:02 (monoallelic reporter cells)
Put plainly: Peptide pulse-based cytotoxicity assay with granzyme-activated fluorescent reporter in HLA-B*07:02 monoallelic HEK293T cells. The assay is classed as cell-based. The conditions noted are these: HLA-B*07:02 monoallelic HEK293T reporter cells pulsed with RAR peptide, co-cultured with TCR-transduced T cells; FIG. 4B. How it is done: as §1

Assay [5] deals with melanoma cells that express MAGEC2. The assay can be described thus: Reactivity to melanoma cell lines measured by IFNγ release. The format is cell-based, human. On the procedure:
To detect reactivity to melanoma cell lines, wild-type melanoma cell lines were seeded at 6×10^4 cells in a 96-well flat bottom plate and rested for 16 hours at 37° C. in 5% CO2. On the following day, T cells were thawed, washed in complete RPMI-1640 medium, and added to the wells for an effector to target ratio of 1:1. The co-culture was incubated for 16 hours. Cells were then harvested by pipetting, transferred to V-bottom 96-well plates, and centrifuged at 2,000 rpm for 2 minutes. The supernatant was collected for IFNγ measurement using a human IFNγ 3rd generation single-plex assay (Protein Simple). For flow cytometry analysis (Cytoflex S™ instrument, Beckman Coulter), cell pellets were washed with FACS buffer (PBS, 0.5% BSA, 2 mM EDTA) and stained for activation-induced markers, including PE-conjugated anti-CD137 (Miltenyi), AF647-conjugated anti-CD69 (Biolegend), and BV421-conjugated anti-CD8 (BioLegend).
Melanoma lines were purchased from ATCC (Manassas, VA) and HEK293T cells were originally from Takara Bio (Shiga, Japan). All media were supplemented with 10% FBS and 1% penicillin and incubated at 37° C. in 5% CO2. A101D, A2058, HT144, and HEK293T cells were maintained in complete DMEM. SK-MEL-5 was cultured in complete EMEM, whereas HMCB required complete EMEM with 10 mM HEPES. […]

B1: TCR 4-58: T cell receptor (TRAV10/TRAJ39; TRBV27) recognizing MAGEC2 VGP peptide presented by HLA-A*24:02; tested in transduced T cells (protein)
TCR alpha: RGNGKNQVEQSPQSLIILEGKNCTLQCNYTVSPFSNLRWYKQDTGRGPVSLTIMTFSENTKSNGRYTATLDADTKQSSLHITASQLSDSASYICVVSARNAGNMLTFGGGTRLMVKPHIQNPEPAVYQLKDPRSQDSTLCLFTDFDSQINVPKTMESGTFITDKCVLDMKAMDSKSNGAIAWSNQTSFTCQDIFKETNATYPSSDVPCDATLTEKSFETDMNLNFQNLLVMVLRILLLKVAGFNLLMTLRLWSS
TCR beta: EAQVTQNPRYLITVTGKKLTVTCSQNMNHEYMSWYRQDPGLGLRQIYYSMNVEVTDKGDVPEGYKVSRKEKRNFPLILESPSPNQTSLYFCACASSFGTSGRGEQFFGPGTRLTVLEDLRNVTPPKVSLFEPSKAEIANKQKATLVCLARGFFPDHVELSWWVNGKEVHSGVCTDPQAYKESNYSYCLSSRLRVSATFWHNPRNHFRCQVQFHGLSEEDKWPEGSPKPVTQNISAEAWGRADCGITSASYQQGVLSATILYEILLGKATLYAVLVSTLVVMAMVKRKNS
Take B1: the “Recognition and killing of VGP peptide-pulsed cells (IFP+ reporter-based cell killing)” value in the assay with VGP peptide-pulsed cells is “recognizes and kills VGP peptide-pulsed cells”.

B2: MAGEC2 TCR 8-3 (TCR, V domains shown)
Valpha: ILNVEQSPQSLHVQEGDSTNFTCSFPSSNFYALHWYRWETAKSPEALFVMTLNGDEKKKGRISATLNTKEGYSYLYIKGSQPEDSATYLCASGSGGATNKLIFGTGTLLAVQP
Vbeta: GEEVAQTPKHLVRGEGQKAKLYCAPIKGHSYVFWYQQVLKNEFKFLISFQNENVFDETGMPKERFSAKCLPNSPCSLEIQATKLEDSAVYFCASSQSRSLRGTEAFFGQGTRLTVV
As for B2, in assay [1], the binding result is reported as “recognises”.

B3: MAGEC2 TCR 4-58 (TCR, V domains shown)
Valpha: KNQVEQSPQSLIILEGKNCTLQCNYTVSPFSNLRWYKQDTGRGPVSLTIMTFSENTKSNGRYTATLDADTKQSSLHITASQLSDSASYICVVSARNAGNMLTFGGGTRLMVKP
Vbeta: EAQVTQNPRYLITVTGKKLTVTCSQNMNHEYMSWYRQDPGLGLRQIYYSMNVEVTDKGDVPEGYKVSRKEKRNFPLILESPSPNQTSLYFCACASSFGTSGRGEQFFGPGTRLTVL
For B3, the binding result in assay [2] is reported as “recognises”.

B4: TCR 8-3: T cell receptor (TRAV24*01/TRAJ32*02; TRBV16*01/TRBJ1-1*01) recognizing MAGEC2 RAR peptide presented by HLA-B*07:02; tested in transduced T cells (protein)
TCR alpha: ILNVEQSPQSLHVQEGDSTNFTCSFPSSNFYALHWYRWETAKSPEALFVMTLNGDEKKKGRISATLNTKEGYSYLYIKGSQPEDSATYLCASGSGGATNKLIFGTGTLLAVQPNIQNPEPAVYQLKDPRSQDSTLCLFTDFDSQINVPKTMESGTFITDKCVLDMKAMDSKSNGAIAWSNQTSFTCQDIFKETNATYPSSDVPCDATLTEKSFETDMNLNFQNLLVMVLRILLLKVAGFNLLMTLRLWSS
TCR beta: GEEVAQTPKHLVRGEGQKAKLYCAPIKGHSYVFWYQQVLKNEFKFLISFQNENVFDETGMPKERFSAKCLPNSPCSLEIQATKLEDSAVYFCASSQSRSLRGTEAFFGQGTRLTVVEDLRNVTPPKVSLFEPSKAEIANKQKATLVCLARGFFPDHVELSWWVNGKEVHSGVCTDPQAYKESNYSYCLSSRLRVSATFWHNPRNHFRCQVQFHGLSEEDKWPEGSPKPVTQNISAEAWGRADCGITSASYQQGVLSATILYEILLGKATLYAVLVSTLVVMAMVKRKNS
As for B4, in assay [3], the “Killing of MAGEC2-expressing melanoma cell lines (red object count over time)” value was “demonstrated to kill cancer cells that express MAGEC2; also recorded: kills MAGEC2-expressing melanoma cell lines”. The “Recognition of RAR peptide-pulsed cells (IFNγ release)” value in the assay on RAR peptide-pulsed cells is on record as “recognizes”. Also, the “Killing of RAR peptide-pulsed cells (granzyme-activated fluorescent reporter)” value in assay [4] is “demonstrated to kill cells expressing RAR peptide-HLA-B*07:02 (pMHC) complex; also recorded: kills”. Also, in assay [5] (IFNγ release versus MAGEC2 expression, FIG. 5E), the “Relation of TCR reactivity to MAGEC2 expression of melanoma cell lines” value was “corresponds to MAGEC2 expression”. Besides, the “Recognition of melanoma cell lines (IFNγ release)” value in assay [5] (melanoma cell lines, E:T 1:1, 16 hours, FIG. 5D) is “recognizes melanoma cells that express MAGEC2”.
